Results: patent US20130129722A1

Assays:
[1] = molecular target: Dimeric Human Ang-2FD conjugated to human IgG1 (human); test: SPR, human IgG1 antibody captured
[2] = molecular target: Dimeric Monkey Ang-2FD conjugated to human IgG1 (monkey (Macca fascicularis)); test: SPR, human IgG1 antibody captured
[3] = molecular target: Dimeric Mouse Ang-2FD conjugated to human IgG1 (mouse (Mus musculus)); test: SPR, human IgG1 antibody captured
[4] = molecular target: Human Ang-2FD-hFc (human); test: ELISA; 16.67 nM antibody premixed with Ang-2FD-hFc, binding to coated hTie-2-mFc
Human Ang-2FD-hFc (human), sequence (chain, as listed by the source limits assumed): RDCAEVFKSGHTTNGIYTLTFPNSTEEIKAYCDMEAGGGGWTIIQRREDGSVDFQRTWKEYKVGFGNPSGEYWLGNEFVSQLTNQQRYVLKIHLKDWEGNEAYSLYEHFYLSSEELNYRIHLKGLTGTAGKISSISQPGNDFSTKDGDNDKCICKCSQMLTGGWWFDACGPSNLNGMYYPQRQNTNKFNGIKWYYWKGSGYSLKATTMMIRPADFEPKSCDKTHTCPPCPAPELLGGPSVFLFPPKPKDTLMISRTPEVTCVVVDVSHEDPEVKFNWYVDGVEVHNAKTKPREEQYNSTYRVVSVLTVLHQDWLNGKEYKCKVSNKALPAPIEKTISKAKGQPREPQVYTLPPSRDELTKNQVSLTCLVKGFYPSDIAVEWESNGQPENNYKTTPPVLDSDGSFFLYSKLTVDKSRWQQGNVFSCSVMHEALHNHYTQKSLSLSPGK

[5] = molecular target: Monkey Ang-2FD-hFc (monkey (Macca fascicularis)); test: as above
Monkey Ang-2FD-hFc (monkey (Macca fascicularis)), sequence (chain, as listed by the source limits assumed): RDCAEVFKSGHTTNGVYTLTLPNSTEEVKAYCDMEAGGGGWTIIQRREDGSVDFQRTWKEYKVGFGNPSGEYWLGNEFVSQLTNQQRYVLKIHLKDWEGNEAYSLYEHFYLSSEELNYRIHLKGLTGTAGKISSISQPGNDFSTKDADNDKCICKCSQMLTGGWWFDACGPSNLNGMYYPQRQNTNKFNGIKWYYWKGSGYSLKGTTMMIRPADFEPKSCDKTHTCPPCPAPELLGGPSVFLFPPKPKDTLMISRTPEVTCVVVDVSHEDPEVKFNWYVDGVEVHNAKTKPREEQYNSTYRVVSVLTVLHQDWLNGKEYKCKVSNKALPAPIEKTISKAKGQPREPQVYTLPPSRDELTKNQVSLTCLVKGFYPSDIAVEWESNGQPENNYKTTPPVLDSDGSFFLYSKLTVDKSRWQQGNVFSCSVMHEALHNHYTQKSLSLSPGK

[6] = molecular target: Mouse Ang-2FD-hFc (mouse (Mus musculus)); test: as above
Mouse Ang-2FD-hFc (mouse (Mus musculus)), sequence (chain, as listed by the source limits assumed): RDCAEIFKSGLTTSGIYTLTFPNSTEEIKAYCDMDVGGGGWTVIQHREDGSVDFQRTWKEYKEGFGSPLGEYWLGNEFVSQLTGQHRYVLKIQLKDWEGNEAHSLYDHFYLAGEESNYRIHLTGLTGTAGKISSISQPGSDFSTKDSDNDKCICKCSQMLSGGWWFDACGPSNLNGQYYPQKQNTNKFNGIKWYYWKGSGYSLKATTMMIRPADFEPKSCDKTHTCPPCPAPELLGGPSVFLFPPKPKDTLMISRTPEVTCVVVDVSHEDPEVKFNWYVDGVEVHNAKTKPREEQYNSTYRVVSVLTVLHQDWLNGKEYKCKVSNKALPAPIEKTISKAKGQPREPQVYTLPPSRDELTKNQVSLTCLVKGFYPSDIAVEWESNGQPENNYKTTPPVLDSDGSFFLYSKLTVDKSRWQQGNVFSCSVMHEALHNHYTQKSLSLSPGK

B1: H1H724N (antibody, V domains shown)
VH: QVQLVESGGGVVQPGRSLRLSCAASGFTLSNYGMHWVRQAPGKGLEWVAVIWHDGSNTYYADSVKGRFTISRDNSKNTLYLQMNSLRAEDTAVYYCTREGLDFWSGYYPNWFDPWGQGTLVTVSS
VL: DIQMTQSPSSLSASVGDRVTITCRASQGIRNDLGWYQQKPGKAPKRLIYAASNLQGGVPSRFSGSGSGTEFTLTISSLQPEDFAAYYCLQHNIYPLTFGGGTKVEIK
Kd [1]: 0.115 nM | T1/2 [1]: 1.78 h | Kd [2]: 0.239 nM | T1/2 [2]: 2.88 h | Kd [3]: 0.185 nM | T1/2 [3]: 1.4 h | Percent Blocking of Ang-2FD Binding to Tie-2 [4]: 96.6% | Percent Blocking of Ang-2FD Binding to Tie-2 [5]: 96.6% | Percent Blocking of Ang-2FD Binding to Tie-2 [6]: 97.1%
